Results on one molecule are retold here after patent US20220265759A1, “COMPOSITION AND METHOD FOR PROMOTING WOUND HEALING” (THE BOARD OF TRUSTEES OF THE UNIVERSITY OF ILLIOIS, priority 2019, published 2022).

Data set [1] has as its system eNOS and CCR10 interaction with LAMP1. Kind of data set: eNOS internalization and degradation in HDMVECs stimulated with CCL28 (Co-IP with LAMP1, confocal microscopy). To be noted: HDMVECs. The format is cell-based, human. On the procedure: (§1) Co-IP Experiments, cells or mouse wounds were collected after treatment, and lysed in 2% ODG in Tris buffer. The homogenates were further prepared for Co-IP experiments as described in the art (Chen, et al. (2018) Mol. Biol. Cell 29(10):1190-1202; Chen, et al. (2020) FASEB J. 34(4):5838-5850; Chen, et al. (2015) Ann. Rheum. Dis. 74:1898-1906).
Confocal Microscopy. For cellular immunostaining, confluent monolayers of cells grown on coverslips were prepared as described previously (Chen, et al. (2012) Mel. Biol. Cell 23(7):1388-1398). Fluorescent images were obtained using a Zeiss LSM 880 confocal microscope. The co-localization coefficient in specified regions of interest (ROI) were determined using Zeiss Zen software. Briefly, using the Overlay tool, the desired ROI was drawn along the cell edge and the values for the ROIs tabulated. The scatterplot and table were automatically adjusted to the pixel distribution for the selected ROI. The data from different treatment groups were collected and analyzed for statistical significance as described previously (Chen, et al. (2020) FASEB J. 34(4):5838-5850). […]
Since myristoylated 7 amino acid CCR10-binding domain (Myr-CBD7) peptide can block eNOS interaction with CCR10 and increase eNOS activity in HUVECs, it was assessed whether Myr-CBD7 can prevent eNOS internalization and degradation in HDMVECs following CCL28 stimulation. […]

For a further data set, the system named is HUVECs. Kind of data set: NO production in HUVECs. Format: cell-based, human. The conditions noted are these: 500 ng/ml. On the procedure: Nitric Oxide (NO) Measurement with DAF-FM Diacetate. Confluent HUVEC monolayers on 96-well plates were loaded with 2.5 μM DAF-FM and incubated for 45 minutes at 37° C. NO concentration was measured using a SpectraMax Microplate Reader (Molecular Devices, San Jose, Calif.) as described in the art (Chen, et al. (2020) FASEB J. 34(4):5838-5850).
(§2) NO production was also observed in HUVECs following treatment with 500 ng/ml human recombinant CCL28, the ligand for CCR10. The signaling pathways activated by CCL28 binding to CCR10 in endothelial cells were further investigated.

For data set [2], the system named is eNOS, p85 (PI3K), Src kinase, ERK (MAPK), β-catenin, Bcl-2. In words: Immunoblot of CCL28 signaling in endothelial cells. Format: cell-based, human. The procedure:
Immunoblot and Co-Immunoprecipitation (Co-IP). After serum starvation, inhibitors were added 45 minutes prior to stimulation for indicated times at 37° C., and cells were then collected and lysed for western blot analysis. After probing for p-eNOS (Ser1177), p-p85 (Tyr458), p-Src (Tyr 416), and p-ERK (T202/Y204), the same blots were stripped and re-probed for total proteins mentioned above. For detection of CCL28-induced protein levels of β-catenin and Bcl-2, near-confluent endothelial cells were incubated with 500 ng/ml CCL28 for 24 hours in EGM-2 medium containing 1% FBS.
as §2
The role of CCL28/CCR10 signaling pathways was further investigated in angiogenesis. Pretreatment of cells with 10 μM wortmannin (PI3K inhibitor), 5 μM U0126 (MAPK/ERK inhibitor), 1 mM L-NAME (eNOS inhibitor), 10 μM PP2 (Src kinase inhibitor), and 10 μM STO-609 ([…]) reduced endothelial cell tube formation induced by 500 ng/ml CCL28. […]
(In general: A western blot detects proteins with antibodies after separation by electrophoresis.)

Another data set addresses T1, CCR10-eNOS interaction (Homo sapiens, UniProt P46092).
T1 construct: host or cells: HUVEC (primary human umbilical vein endothelial cells)
T1 sequence (P46092 1-362): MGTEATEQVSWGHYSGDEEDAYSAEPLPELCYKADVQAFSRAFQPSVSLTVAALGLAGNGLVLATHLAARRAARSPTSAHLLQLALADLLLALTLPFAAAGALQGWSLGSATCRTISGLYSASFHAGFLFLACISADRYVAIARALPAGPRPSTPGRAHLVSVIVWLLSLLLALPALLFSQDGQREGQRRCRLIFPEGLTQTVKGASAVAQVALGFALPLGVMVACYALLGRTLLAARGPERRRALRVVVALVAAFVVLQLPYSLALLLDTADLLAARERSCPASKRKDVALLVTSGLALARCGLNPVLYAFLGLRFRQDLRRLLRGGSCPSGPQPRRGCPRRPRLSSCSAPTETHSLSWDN
Kind of data set: Ligand-induced CCR10-eNOS interaction in HUVEC (Co-IP, confocal co-localization). The format is cell-based. To be noted: plasma membrane ROI, stimulation for 5 minutes; untreated control cells 43%. The procedure:
as §1
Confocal Microscopy. For cellular immunostaining, confluent monolayers of cells grown on coverslips were prepared as described previously (Chen, et al. (2012) Mel. Biol. Cell 23(7):1388-1398). Fluorescent images were obtained using a Zeiss LSM 880 confocal microscope. The co-localization coefficient in specified regions of interest (ROI) were determined using Zeiss Zen software. Briefly, using the Overlay tool, the desired ROI was drawn along the cell edge and the values for the ROIs tabulated. […] The data from different treatment groups were collected and analyzed for statistical significance as described previously (Chen, et al. (2020) FASEB J. 34(4):5838-5850).
To investigate whether CCR10 interacts directly with eNOS, primary culture HUVEC were collected and prepared for co-immunoprecipitation (Co-IP) to assess CCR10-eNOS interaction following stimulation with 5 μM A23187. […] Co-localization coefficient in the regions of interest (ROI) in the plasma membrane were quantified from Zeiss LSM 880 confocal microscope images using Zeiss Zen software.

A further data set has as its target T2, eNOS-CCR10 interaction (Homo sapiens, UniProt P46092).
T2 construct: host or cells: HDMVEC (human dermal microvascular endothelial cells)
T2 sequence (P46092 1-362): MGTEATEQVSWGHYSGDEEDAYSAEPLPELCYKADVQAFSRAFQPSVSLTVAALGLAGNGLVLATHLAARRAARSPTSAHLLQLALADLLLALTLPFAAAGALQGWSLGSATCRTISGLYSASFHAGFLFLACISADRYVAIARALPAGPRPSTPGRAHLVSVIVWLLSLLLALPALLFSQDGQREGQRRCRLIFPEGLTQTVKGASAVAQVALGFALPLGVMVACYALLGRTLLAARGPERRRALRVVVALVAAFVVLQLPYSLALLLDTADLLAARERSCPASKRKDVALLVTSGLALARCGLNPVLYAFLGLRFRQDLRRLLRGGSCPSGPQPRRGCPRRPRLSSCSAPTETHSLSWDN
T2 sequence (P29474 2-1203 partner limits assumed): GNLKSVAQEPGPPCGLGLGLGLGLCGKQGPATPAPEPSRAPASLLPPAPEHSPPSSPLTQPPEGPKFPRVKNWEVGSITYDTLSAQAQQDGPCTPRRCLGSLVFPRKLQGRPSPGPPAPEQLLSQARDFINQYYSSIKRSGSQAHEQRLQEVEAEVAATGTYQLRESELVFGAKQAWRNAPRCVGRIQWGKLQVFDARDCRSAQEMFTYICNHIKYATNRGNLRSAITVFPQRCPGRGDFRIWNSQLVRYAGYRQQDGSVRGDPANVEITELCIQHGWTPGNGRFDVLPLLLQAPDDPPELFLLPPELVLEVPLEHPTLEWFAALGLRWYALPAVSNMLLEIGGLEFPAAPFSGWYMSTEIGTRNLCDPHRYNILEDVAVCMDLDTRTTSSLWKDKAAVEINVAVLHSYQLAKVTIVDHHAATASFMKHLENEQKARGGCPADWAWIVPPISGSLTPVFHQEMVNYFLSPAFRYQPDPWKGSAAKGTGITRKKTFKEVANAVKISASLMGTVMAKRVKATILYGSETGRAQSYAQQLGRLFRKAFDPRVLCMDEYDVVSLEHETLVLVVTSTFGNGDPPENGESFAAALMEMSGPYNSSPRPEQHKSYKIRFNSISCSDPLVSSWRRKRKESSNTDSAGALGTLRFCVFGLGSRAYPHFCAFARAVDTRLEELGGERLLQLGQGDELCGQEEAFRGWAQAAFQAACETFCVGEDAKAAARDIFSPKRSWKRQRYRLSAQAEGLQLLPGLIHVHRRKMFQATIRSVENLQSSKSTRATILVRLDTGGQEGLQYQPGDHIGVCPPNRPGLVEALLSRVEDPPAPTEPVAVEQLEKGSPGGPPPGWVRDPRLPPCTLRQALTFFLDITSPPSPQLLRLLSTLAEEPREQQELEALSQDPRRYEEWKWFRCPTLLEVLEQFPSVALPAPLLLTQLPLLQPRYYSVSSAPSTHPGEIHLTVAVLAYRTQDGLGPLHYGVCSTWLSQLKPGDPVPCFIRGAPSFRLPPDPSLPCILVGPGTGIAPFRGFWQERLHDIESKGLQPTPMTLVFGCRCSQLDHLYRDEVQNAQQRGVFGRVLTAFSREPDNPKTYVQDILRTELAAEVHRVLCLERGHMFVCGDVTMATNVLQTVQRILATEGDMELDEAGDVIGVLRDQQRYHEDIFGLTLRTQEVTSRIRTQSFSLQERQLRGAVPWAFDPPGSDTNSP
In words: CCL28-induced eNOS-CCR10 interaction in HDMVECs. The format is cell-based. To be noted: 500 ng/ml.
Description: as §1
It has been shown that CCR10 is highly expressed in human umbilical vein endothelial cells (HUVECs) and human endothelial progenitor cells (EPCs) (Chen, et al. (2020) FASEB J. 34(4):5838-5850). In order to understand whether the CCL28/CCR10 signaling axis in dermal microvessels plays a role in wound healing, 500 ng/ml CCL28 was administrated to human dermal microvascular endothelial cells (HDMVECs). eNOS-CCR10 interaction increased with maximum binding observed at 5 minutes, similar to that observed in HUVEC (Chen, et al. (2020) FASEB J. 34(4):5838-5850). […] Upon stimulation with CCL28 for 5 minutes, CCR10 co-localized to a greater extent with eNOS on the plasma membrane.

B1: CCL28: human recombinant CCL28, the ligand for CCR10 (protein)
chain: ILPIASSCCTEVSHHISRRLLERVNMCRIQRADGDCDLAAVILHVKRRRICVSPHNHTVKQWMKVQAAKKNGKGNVCHRKKHHGKRNSNRAHQGKHETYGHKTPY
For B1, the “eNOS co-localization with EEA1” value in data set [1] (500 ng/ml for 90 minutes, preliminary analyses) is given as “more co-localization”. In data set [1] (3 hours treatment), the “eNOS and CCR10 association with LAMP1 (co-IP)” value is “associated with LAMP1”. Further, the NO production result in the data set on HUVECs is “observed”. The “expression levels of β-catenin and Bcl-2” value in data set [2] (stimulation of endothelial cells for 24 hours) was “enhanced”. Further, the “Phosphorylation of eNOS (Ser1177), p85 (Tyr458; PI3K), Src kinase (Tyr418), and ERK (T202/Y204; MAPK)” value in data set [2] (treatment for up to 60 minutes) is reported as “significantly increased”. Besides, the “Co-localization coefficient of CCR10 and eNOS” value with CCR10-eNOS interaction is given as 78%. In the data set with eNOS-CCR10 interaction, the eNOS-CCR10 interaction result is “increased” and the “time of maximum eNOS-CCR10 binding” value was 5 min.
